The text below walks through data of patent publication US11459578B2, “Carbon fixation systems in plants and algae” (NMC, INC., priority 2014, dated 2022).

One data set addresses α-CAs found in mammals. The conditions noted are these: inhibitor not named; cited from earlier work.
For data set [1] the following is noted: cited from earlier work.
For the next data set, the system named is Camelina. Nature of the data set: Growth phenotypes and seed recovery of transgenic Camelina. The data set is classed as in vivo. An excerpt: (§1) Previously, reconstitution of a functional inorganic CCM in C3 plants to suppress photorespiration and enhance photosynthesis was proposed. In WO 2012/125737, it was hypothesized that expression of a minimum of three algal CCM proteins would be sufficient to elevate internal plastid CO2 concentrations high enough to suppress photorespiration. These three algal CCM genes included the Chlamydomonas plasma membrane-localized and ATP-dependent bicarbonate transporter, HLA3; the chloroplast envelope localized bicarbonate anion transporter, LCIA; and a chloroplast stromal-localized carbonic anhydrase (HCA-II) to accelerate conversion of bicarbonate into CO2. […] To test this hypothesis, we generated multiple independent transgenic Arabidopsis and Camelina plants expressing each CCM gene as a single gene construct, as well as a stacked 3-gene construct. The expression of each gene was controlled by the light-regulated Cab1 gene promoter.

Another data set has as its system Arabidopsis. The data set can be described thus: Growth phenotypes of transgenic Arabidopsis. Type of data set: in vivo.
Source text: as §1
Finally, we also grew transgenics on ammonium with sucrose which would presumably provide additional ATP via respiration. We hypothesized that growth on nitrate or ammonium with sucrose would provide additional ATP that could potentially drive HLA3 activity.

A word on the Ki: it is the equilibrium dissociation constant of an inhibitor or competing ligand from its target. By Km is commonly meant the substrate concentration at which the rate is half of its maximum. Take “hCAI: human α-carbonic anhydrase isoenzyme I”: the Ki at α-CAs found in mammals is 250 nM. Moreover, the Km in data set [1] was 4 mM.
For “hCAXIII: human α-carbonic anhydrase isoenzyme XIII”, the Ki on α-CAs found in mammals was 16 nM. Besides, the Michaelis constant (Km) in data set [1] was 13.8 mM.

B1: HLA3: Chlamydomonas plasma membrane-localized and ATP-dependent bicarbonate transporter, expressed in transgenic plants (protein, listed as Chlamydomonas reinhardtii)
chain: MLPGLGVILLVLPMQYYFGYKIVQIKLQNAKHVALRSAIMQEVLPAIKLVKYYAWEQFFENQISKVRREEIRLNFWNCVMKVINVACVFCVPPMTAFVIFTTYEFQRARLVSSVAFTTLSLFNILRFPLVVLPKALRAVSEANASLQRLEAYLLEEVPSGTAAVKTPKNAPPGAVIENGVFHHPSNPNWHLHVPKFEVKPGQVVAVVGRIAAGKSSLVQAILGNMVKEHGSFNVGGRISYVPQNPWLQNLSLRDNVLFGEQFDENKYTDVIESCALTLDLQILSNGDQSKAGIRGVNFSGGQRQRVNLARCAYADADLVLLDNALSAVDHHTAHHIFDKCIKGLFSDKAVVLVTHQIEFMPRCDNVAIMDEGRCLYFGKWNEEAQHLLGKLLPITHLLHAAGSQEAPPAPKKKAEDKAGPQKSQSLQLTLAPTSIGKPTEKPKDVQKLTAYQAALIYTWYGNLFLVGVCFFFFLAAQCSRQISDFWVRWWVNDEYKKFPVKGEQDSAATTFYCLIYLLLVGLFYIFMIFRGATFLWWVLKSSETIRRKALHNVLNAPMGFFLVTPVGDLLLNFTKDQDIMDENLPDAVHFMGIYGLILLATTITVSVTINFFAAFTGALIIMTLIMLSIYLPAATALKKARAVSGGMLVGLVAEVLEGLGVVQAFNKQEYFIEEAARRTNITNSAVFNAEALNLWLAFWCDFIGACLVGVVSAFAVGMAKDLGGATVGLAFSNIIQMLVFYTWVVRFISESISLFNSVEGMAYLADYVPHDGVFYDQRQKDGVAKQIVLPDGNIVPAASKVQVVVDDAALARWPATGNIRFEDVWMQYRLDAPWALKGVTFKINDGEKVGAVGRTGSGKSTTLLALYRMFELGKGRILVDGVDIATLSLKRLRTGLSIIPQEPVMFTGTVRSNLDPFGEFKDDAILWEVLKKVGLEDQAQHAGGLDGQVDGTGGKAWSLGQMQLVCLARAALRAVPILCLDEATAAMDPHTEAIVQQTIKKVFDDRTTITIAHRLDTIIESDKIIVMEQGSLMEYESPSKLLANRDSMFSKLVDKTGPAAAAALRKMAEDFWSTRSAQGRNQ
For the molecule B1, in the data set with Camelina, the “growth phenotype / viability relative to WT” value is recorded as “no viable seeds were recovered”. Besides, the “growth phenotype relative to WT” value in the data set with Arabidopsis was “reduced growth phenotypes”. Also, the “growth in the presence of ammonium” value with Arabidopsis (ammonium) is “none of the Arabidopsis HLA3 transgenics (4 independent lines) grew”. The “growth on ammonium with sucrose” value in the data set with Arabidopsis (ammonium plus sucrose) was “rescued”. For the same molecule, the growth on nitrate entry with Arabidopsis (nitrate) was “survived”.

B2: hCAXII: human α-carbonic anhydrase isoenzyme XII (protein, UniProt O43570 25-354, looked up)
Carbonic anhydrase 12: APVNGSKWTYFGPDGENSWSKKYPSCGGLLQSPIDLHSDILQYDASLTPLEFQGYNLSANKQFLLTNNGHSVKLNLPSDMHIQGLQSRYSATQLHLHWGNPNDPHGSEHTVSGQHFAAELHIVHYNSDLYPDASTASNKSEGLAVLAVLIEMGSFNPSYDKIFSHLQHVKYKGQEAFVPGFNIEELLPERTAEYYRYRGSLTTPPCNPTVLWTVFRNPVQISQEQLLALETALYCTHMDDPSPREMINNFRQVQKFDERLVYTSFSQVQVCTAAGLSLGIILSLALAGILGICIVVVVSIWLFRRKSIKKGDNKGVIYKPATKMETEAHA
As for B2, the inhibition constant (Ki) at α-CAs found in mammals was 5.7 nM. For the same molecule, the Km in data set [1] was 12 mM.

B3: hCAIV: human α-carbonic anhydrase isoenzyme IV (protein, UniProt P22748 19-284, looked up)
Carbonic anhydrase 4: AESHWCYEVQAESSNYPCLVPVKWGGNCQKDRQSPINIVTTKAKVDKKLGRFFFSGYDKKQTWTVQNNGHSVMMLLENKASISGGGLPAPYQAKQLHLHWSDLPYKGSEHSLDGEHFAMEMHIVHEKEKGTSRNVKEAQDPEDEIAVLAFLVEAGTQVNEGFQPLVEALSNIPKPEMSTTMAESSLLDLLPKEEKLRHYFRYLGSLTTPTCDEKVVWTVFREPIQLHREQILAFSQKLYYDKEQTVSMKDNVRPLQQLGQRTVIKS
Take B3: the inhibitory constant (Ki) on α-CAs found in mammals was 74 nM. Also, the Michaelis constant (Km) in data set [1] is 21.5 mM.

B4: hCAVB: human α-carbonic anhydrase isoenzyme VB (protein, UniProt Q9Y2D0 34-317, looked up)
Carbonic anhydrase 5B, …: CSLYTCTYKTRNRALHPLWESVDLVPGGDRQSPINIRWRDSVYDPGLKPLTISYDPATCLHVWNNGYSFLVEFEDSTDKSVIKGGPLEHNYRLKQFHFHWGAIDAWGSEHTVDSKCFPAELHLVHWNAVRFENFEDAALEENGLAVIGVFLKLGKHHKELQKLVDTLPSIKHKDALVEFGSFDPSCLMPTCPDYWTYSGSLTTPPLSESVTWIIKKQPVEVDHDQLEQFRTLLFTSEGEKEKRMVDNFRPLQPLMNRTVRSSFRHDYVLNVQAKPKPATSQATP
Turning to B4, on α-CAs found in mammals, the inhibition constant Ki is 54 nM. Also, the Km in data set [1] is 9.7 mM.

B5: hCAVI: human α-carbonic anhydrase isoenzyme VI (protein, UniProt P23280 18-308, looked up)
Carbonic anhydrase 6: QHVSDWTYSEGALDEAHWPQHYPACGGQRQSPINLQRTKVRYNPSLKGLNMTGYETQAGEFPMVNNGHTVQISLPSTMRMTVADGTVYIAQQMHFHWGGASSEISGSEHTVDGIRHVIEIHIVHYNSKYKSYDIAQDAPDGLAVLAAFVEVKNYPENTYYSNFISHLANIKYPGQRTTLTGLDVQDMLPRNLQHYYTYHGSLTTPPCTENVHWFVLADFVKLSRTQVWKLENSLLDHRNKTIHNDYRRTQPLNHRVVESNFPNQEYTLGSEFQFYLHKIEEILDYLRRALN
As to B5, on α-CAs found in mammals, the inhibition constant (Ki) is 11 nM. Further, the Michaelis constant (Km) in data set [1] was 6.9 mM.

B6: hCAVII: human α-carbonic anhydrase isoenzyme VII (protein, UniProt P43166 1-264, looked up)
Carbonic anhydrase 7: MTGHHGWGYGQDDGPSHWHKLYPIAQGDRQSPINIISSQAVYSPSLQPLELSYEACMSLSITNNGHSVQVDFNDSDDRTVVTGGPLEGPYRLKQFHFHWGKKHDVGSEHTVDGKSFPSELHLVHWNAKKYSTFGEAASAPDGLAVVGVFLETGDEHPSMNRLTDALYMVRFKGTKAQFSCFNPKCLLPASRHYWTYPGSLTTPPLSESVTWIVLREPICISERQMGKFRSLLFTSEDDERIHMVNNFRPPQPLKGRVVKASFRA
With B6, the Ki on α-CAs found in mammals was 2.5 nM. Besides, the Km in data set [1] is 11.4 mM.

B7: hCAVA: human α-carbonic anhydrase isoenzyme VA (protein, UniProt P35218 39-305, looked up)
Carbonic anhydrase 5A, …: CAWQTSNNTLHPLWTVPVSVPGGTRQSPINIQWRDSVYDPQLKPLRVSYEAASCLYIWNTGYLFQVEFDDATEASGISGGPLENHYRLKQFHFHWGAVNEGGSEHTVDGHAYPAELHLVHWNSVKYQNYKEAVVGENGLAVIGVFLKLGAHHQTLQRLVDILPEIKHKDARAAMRPFDPSTLLPTCWDYWTYAGSLTTPPLTESVTWIIQKEPVEVAPSQLSAFRTLLFSALGEEEKMMVNNYRPLQPLMNRKVWASFQATNEGTRS
Consider B7, for which the Ki at α-CAs found in mammals was 63 nM. In data set [1], the Michaelis constant (Km) is 10 mM.

B8: hCAIII: human α-carbonic anhydrase isoenzyme III (protein, UniProt P07451 2-260, looked up)
Carbonic anhydrase 3: AKEWGYASHNGPDHWHELFPNAKGENQSPVELHTKDIRHDPSLQPWSVSYDGGSAKTILNNGKTCRVVFDDTYDRSMLRGGPLPGPYRLRQFHLHWGSSDDHGSEHTVDGVKYAAELHLVHWNPKYNTFKEALKQRDGIAVIGIFLKIGHENGEFQIFLDALDKIKTKGKEAPFTKFDPSCLFPACRDYWTYQGSFTTPPCEECIVWLLLKEPMTVSSDQMAKLRSLLSSAENEPPVPLVSNWRPPQPINNRVVRASFK
In the case of B8, the Ki on α-CAs found in mammals was 200000 nM. For the same molecule, the Km in data set [1] is 33.3 mM.

B9: hCAXIV: human α-carbonic anhydrase isoenzyme XIV (protein, UniProt Q9ULX7 16-337, looked up)
Carbonic anhydrase 14: ADGGQHWTYEGPHGQDHWPASYPECGNNAQSPIDIQTDSVTFDPDLPALQPHGYDQPGTEPLDLHNNGHTVQLSLPSTLYLGGLPRKYVAAQLHLHWGQKGSPGGSEHQINSEATFAELHIVHYDSDSYDSLSEAAERPQGLAVLGILIEVGETKNIAYEHILSHLHEVRHKDQKTSVPPFNLRELLPKQLGQYFRYNGSLTTPPCYQSVLWTVFYRRSQISMEQLEKLQGTLFSTEEEPSKLLVQNYRALQPLNQRMVFASFIQAGSSYTTGEMLSLGVGILVGCLCLLLAVYFIARKIRKKRLENRKSVVFTSAQATTEA
For the molecule B9, the inhibition constant Ki at α-CAs found in mammals was 41 nM. Also, in data set [1], the Michaelis-Menten constant (Km) is 7.9 mM.

B10: hCAXV: α-carbonic anhydrase isoenzyme XV (protein, UniProt Q99N23 19-324, looked up)
Carbonic anhydrase 15: VDSSGTWCYDSQDPKCGPAHWKELAPACGGPTQSPINIDLRLVQRDYTLKPFIFQGYDSAPQDPWVLENDGHTVLLRVNSCQQNCPAIRGAGLPSPEYRLLQLHFHWGSPGHQGSEHSLDEKHGSMEMHMVHMNTKYQSMEDARSQPDGFAILAVLLVEEDRDNTNFSAIVSGLKNLSSPGVAVNLTSTFALASLLPSALRLLRYYRYSGSLTTPGCEPAVLWTVFENTVPIGHAQVVQFQAVLQTGPPGLHPRPLTSNFRPQQPLGGRRISASPEASVRSSVSTLPCLHLALVGLGVGLRLWQGP
Take B10: the inhibitory constant (Ki) at α-CAs found in mammals was 72 nM. For the same molecule, the Km in data set [1] is 14.2 mM.
